Results published in paper doi:10.1101/2022.06.21.497044 (bioRxiv, 2022).
Changes are numbered by the printed parent chain.

Columns and labels:
[1] = target: T1, GST-ABI5 (Arabidopsis thaliana, UniProt Q9SJN0 1-442); assay: pull-down
T1 sequence: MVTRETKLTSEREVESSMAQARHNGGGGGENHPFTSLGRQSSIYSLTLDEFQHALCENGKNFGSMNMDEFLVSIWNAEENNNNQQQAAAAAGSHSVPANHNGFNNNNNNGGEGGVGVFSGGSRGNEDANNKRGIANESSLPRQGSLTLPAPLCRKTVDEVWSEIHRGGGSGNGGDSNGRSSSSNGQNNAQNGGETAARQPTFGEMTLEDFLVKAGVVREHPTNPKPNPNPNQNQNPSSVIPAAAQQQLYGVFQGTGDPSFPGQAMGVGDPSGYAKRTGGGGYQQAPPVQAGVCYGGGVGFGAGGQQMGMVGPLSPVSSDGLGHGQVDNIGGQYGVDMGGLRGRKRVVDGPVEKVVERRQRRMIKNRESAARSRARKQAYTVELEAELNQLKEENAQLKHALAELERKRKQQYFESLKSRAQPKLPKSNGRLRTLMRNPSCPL

[2] = target: T2, GST-ABI5 (Arabidopsis thaliana, UniProt Q9SJN0 1-442); assay: EMSA
T2 sequence: T1 sequence

[3] = target: T3, BBX31 (miP1a) (Arabidopsis thaliana, UniProt Q9LRM4 1-121); assay: EMSA
T3 sequence: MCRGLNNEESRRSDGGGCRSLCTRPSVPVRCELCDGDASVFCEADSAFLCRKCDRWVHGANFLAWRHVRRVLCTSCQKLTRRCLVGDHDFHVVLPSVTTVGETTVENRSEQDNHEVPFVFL

[4] = target: T4, BBX30 (miP1b) (Arabidopsis thaliana, UniProt Q1G3I2 1-117); assay: EMSA
T4 sequence: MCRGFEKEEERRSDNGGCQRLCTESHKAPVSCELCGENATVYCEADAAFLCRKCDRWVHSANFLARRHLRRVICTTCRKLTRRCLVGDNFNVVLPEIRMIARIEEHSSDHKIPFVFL

B1: His-BBX31 (natural protein)
chain: T3 sequence
binding result [1]: binds

B2: BBX30 promoter probe (dsDNA)
DNA 1: GTCAATATTTTTCCACGTGTACAACCAGTTTA
DNA 2: TAAACTGGTTGTACACGTGGAAAAATATTGAC
binding result [2]: binds

B3: mutBBX30 probe (dsDNA)
DNA 1: B2 DNA 1 with C16A, G17A, T18A, G19A
DNA 2: B2 DNA 2 with C14T, A15T, C16T, G17T
binding result [2]: no binding

B4: ABI5 promoter probe (dsDNA)
DNA 1: GCAAGAAACAGAAGAGAGACACGTGCAGGACACGTGTCGTCCGCAGCCGAACGGA
DNA 2: TCCGTTCGGCTGCGGACGACACGTGTCCTGCACGTGTCTCTCTTCTGTTTCTTGC
binding result [3]: no binding | binding result [4]: no binding

B5: His-BBX30 (natural protein)
chain: T4 sequence
binding result [1]: binds

B6: EM6 promoter probe (dsDNA)
DNA 1: AATAAAGTCAGACACGTGGCATGTCACCAA
DNA 2: TTGGTGACATGCCACGTGTCTGACTTTATT
binding result [3]: no binding | binding result [4]: no binding

B7: BBX31 promoter probe (dsDNA)
DNA 1: AAATAACAGGGCAAGATTCATCCACGTGTCCAACAACAACACAACACAAA
DNA 2: TTTGTGTTGTGTTGTTGTTGGACACGTGGATGAATCTTGCCCTGTTATTT
binding result [2]: binds

B8: mutBBX31 probe (dsDNA)
DNA 1: B7 DNA 1 with C23A, A24C, T27G
DNA 2: B7 DNA 2 with A24C, T27G, G28T
binding result [2]: no binding
